Substrate in the series: C[C@]12CCC(=O)C=C1CCC1C2C(=O)C[C@@]2(C)C1CC[C@]2(O)C(=O)CO
Put plainly: cells, lysate or membranes named.

B1: human hepatic microsomal 11β HSD1 (Homo sapiens) (protein)
chain: MAFMKKYLLPILGLFMAYYYYSANEEFRPEMLQGKKVIVTGASKGIGREMAYHLAKMGAHVVVTARSKETLQKVVSHCLELGAASAHYIAGTMEDMTFAEQFVAQAGKLMGGLDMLILNHITNTSLNLFHDDIHHVRKSMEVNFLSYVVLTVAALPMLKQSNGSIVVVSSLAGKVAYPMVAAYSASKFALDGFFSSIRKEYSVSRVNVSITLCVLGLIDTETAMKAVSGIVHMQAAPKEECALEIIKGGALRQEEVYYDSSLWTTLLIRNPCRKILEFLYSTSYNMDRFINK
For B1, for the setting “other: 10 μg microsomal protein, 30 min at 37° C., Buffer 1, TLC assay”, the Km is 0.66 µM.

B2: Human 11β HSD1 (Homo sapiens) (protein)
chain: MAFMKKYLLPILGLFMAYYYYSANEEFRPEMLQGKKVIVTGASKGIGREMAYHLAKMGAHVVVTARSKETLQKVVSHCLELGAASAHYIAGTMEDMTFAEQFVAQAGKLMGGLDMLILNHITNTSLNLFHDDIHHVRKSMEVNFLSYVVLTVAALPMLKQSNGSIVVVSSLAGKVAYPMVAAYSASKFALDGFFSSIRKEYSVSRVNVSITLCVLGLIDTETAMKAVSGIVHMQAAPKEECALEIIKGGALRQEEVYYDSSLWTTLLIRNPCRKILEFLYSTSYNMDRFINK
Regarding B2, for the setting “other: RIA detection, 10 μg/well microsomal protein, 30 min, buffer 3, 37.0 °C”, the Km came out at 0.7 µM.

Source of the values: patent US20070244108A1.
